According to the DeepSol protein solubility set:

Experiment: soluble on expression in E. coli; label from the status in PepcDB or PDB records

Sequence | soluble on expression in E. coli
MSLTIEDNHGTEGISLPIEGVAATDNRAFELLDRWGVELVAAPLQLVPFTVTGYTEEGGVANLGSHREPDLEALAAAQPSLIINGQRFAQYYDDIIALNPDATVVELDPRDGEPLDQELIRQAETLGEIFGEEEDAAKIVADFESALERAKTAYAAISDQTVMAVNVSGGNIGYIAPSVGRTYGPIFDLVGLTPALEVGNASSDHEGDDINVEAIAAANPDLILVMDRDGGTSTRNEADYVPAEQIVSDNEALANVKAVTDGYVYYAPADTYTNENIITYTEILNGMADMFEKAAQEGHHHHHH | soluble
MSLTIEDVAKLAGVSIATVSRVINGSGYVSEKTRYKVWKAIEELGYKPEISAKLLASKGKLFNIYVFASKRILSPLQNNGILGEFYGVIIRAIEENCGRLGMNVELKMLENFSESNGADGYIFIGGDLSEKTLKEIKSRKKPFVLVDHYIPGERVDCVISDGYDGAVYATNYLISKGFKRIVHVHGPLHPYGFKMRYDGYKDAMEKAGLMPRFYECDDTEEGTRKVIDIMLNSYGTPEAIFTSNDSIAFWVIKRLKEHNIKVPDDVSVIGFDDIVDAENFDPPLTTLRVFKYEMGCLACKRLHELLTGINPHPVRILVFTQFVKRKSTKEGHHHHHH | not soluble
MSLTIKVFSPKYPTELEEFYAERIADNPLGFIQRLDLLPSISGFVQKLREHGGEFFEMREGNKLIGICGLNPINQTEAELCKFHINSAYQSQGLGQKLYESVEKYAFIKGYTKISLHVSKSQIKACNLYQKLGFVHIKEEDCVVELGEETLIFPTLFMEKILSEGHHHHHH | soluble
MSLTIYVYVLDTLADWEIGYVNSELNSRRFFKKDANRVSLKTVSYSKEPIKTMGGMTIVPDCVIDDIVMSETSVLLLPGADTWNNLEHKAIIKKASELLALNATVAAICGATVALANHGLLDNRPHTSNGAGFLEMFSSSYKGQNSYINELSVWDNNLITASSAGALLWAKQIIAHLDVFESNTLESWYAYFNTGDPKHFYALMESLPDNNEGHHHHHH | soluble
MSLTKSSKYDTAFLKENMMGPNAIKIIEELLESLKLEEGMRVLDLGCGKGLTSIFLAKEYGVTVFATDLWISATENYERIKSMGLEDKIIPIHAEAHDLPFAQEYFDVAISVDAYHYFGIEEDYLTKHLAPLVKKGGKIAVAVPGLKKEFENGVPEKLQPYWFEDMTLTLHSLDWWYNLWKKADSVSIEECKELKCLEETWQDWLSCDNDYARRDIGMMEAEGGNYFNLVSIIATRLEGHHHHHH | soluble
MSLTKYHDLKNKVIVIAGGIKNLGALTAKTFALESVNLVLHYHQAKDSDTANKLKDELEDQGAKVALYQSDLSNEEEVAKLFDFAEKEFGKVDIAINTVGKVLKKPIVETSEAEFDAMDTINNKVAYFFIKQAAKHMNPNGHIITIATSLLAAYTGFYSTYAGNKAPVEHYTRAASKELMKQQISVNAIAPGPMDTSFFYGQETKESTAFHKSQAMGNQLTKIEDIAPIIKFLTTDGWWINGQTIFANGGYTTREGHHHHHH | soluble
MSLTMNSEDKFKILQIADLHFSTGYGKCLDPQPPSSAKGCKADSRTLEFINKVLDLEKPDMVVLTGDQIFGDASPDLESSAFKALNPFVERKIPFAITVGNHDDEGSLKREEIMGLYADMPYSVAAMGPASIDGFGNYVVTVQGKSSKATALSLYFVDSHAYSKTPKVTPGYDWIKENQLIYLKQEAESIQNSVEKYRKSNKIPLAMAFFHIPLPEFRNLNQPFIGENREGVTAPRYNSGARQVLSEIGVSVASVGHDHCNDYCLQDTQQSLSPGDNKMWLCFGGGAGLGGYGGYNGYIRRMRVYELDTSKGEIKTWKRTEDNPGNIIDEQVLVSNGDVVNEGHHHHHH | soluble
MSLTNFVCHTLYHLLITIIKLKDKENTRIFICDTITDYETWVKILNDQGIRTESFKEFAYREQLQNKNIEEVMELVDSDLNHYFERVDTQVYLFNDDTLIGRYMVYLGKNYHLIEDGYNCFQAKLFLGGSVVKRVIKTYLFKKYVPYGFSKYCLSIEVNSLVGLPHDIRSKKYKELPRKKLFDSLNKEQKSLIFKIFKTKPLTITPKSVLLLTQPLAQDKWYKTPTERFQSIQEQYDYFDDIVQEYRTLGYNVYLKVHPRDVVDYSKLPVELLPSNVPMEIIELMSTGRFECGITHSSTALDSLTCVDKKITLVDLKDIKEGHHHHHH | not soluble
MSLTNLFQDDSLTLHTDLYQLNMMKAYFDDGLHERRSVFEVFFRDMPFDSGFVVFAGLERIIHYMQNLRFTETDIAYLHDELGFDGPFLEYLRNFKFKGNILAAKEGEFVFKTEPILQVEASLAEAQLIETALLNIVNFQTLIATKAARIRSVIDDETFAEFGTRRAQEMDAAIWGTRAAYIGGCDSTSNVRAGKIFGIPVSGTMAHAMVQAYRDELEAFRSYAKTHFDSIFLVDTYDTLKSGVPNAIKVAKEMGDKINFIGIRLDSGDMAFLSKKARQMLDEAGFTEAKIFASSDLDEHTILSLKAQKAKIDSWGVGTKLITAYDQPALGAVYKMAAIADENDILQDSIKLSSNTEKVSTPGKKKVYRIITNEDGLKAEGDYIALADESLENVDKLTMFHPVHTYIMKTVENFTARELLVPIFQNGELVYDMPSLDEIKAYKEENLALLWDEYKRTVRPEQYPVDLSVKCWKNKMRNIEKVRKSVQLHSPVELDMPFEGHHHHHH | soluble
MSLTPQQVFVKCHFDYNPYNDNLIPCKEAGLKFSKGEILQIVNREDPNWWQASHVKEGGSAGLIPSQFLEEKRKAFVRRDWDNSGPFCGTISSKKKKKMMYLTTRNAEFDRHEIQIYEEVAKMPPFQRKTLVLIGAQGVGRRSLKNRFIVLNPTRFGTTVPFTSRKPREDEKDGQAYKFVSRSEMEADIKAGKYLEHGEYEGNLYGTKIDSILEVVQTGRTCILDVNPQALKVLRTSEFMPYVVFIAAPELETLRAMHKAVVDAGITTKLLTDSDLKKTVDESARIQRAYNHYFDLIIINDNLDKAFEKLQTAIEKLRMEPQWVPISWVYEGHHHHHH | soluble
MSLTPRFIDLHTHTTASDGSDSPADLVRKATEAGLAAVAVTDHDTVAGLDEAVAMGHETGIEVVRGCELGVRSEYGEIHILGLWLPEKPETLLDAMKELRRHRNERNERIVDNLRTLGMDITYEEVRALSGGVSVGRPHIALALLRHGYIRTPQEAFDRFIGPGAPAYAPKKVFSPAEGVRLLASCGATVAIAHPMLLRCPEEWLDDTVADLKVAGLDAIEAYHSEHSHKDERRCVDIADRHGLVLTGGSDYHGKAKPAISLGRGREGHHHHHH | not soluble
MSLTPVISAYNWVPPPARGLVRDLRIRWALEELGRPYAVETVLHQDKTAYRAKQPFGQVPAYDDGEVQLFESGAIVLHIAEQDERLLPRDPAARARAIGWMFCALNTLEVPLLQLAELNIFSAGQAWTEGARPKVERWVRQRLGQLAARLGDKTYLDGETFTAGDLLVADVLRQAPDAMLAETPTLVAYRDRCTARPAFQKALAAQLADLNGPPPPGWGEGHHHHHH | soluble
MSLTQAQGAQQYVNINPPMPSDTPGKIEVLEFFAYTCPHCAAIEPMVEDWAKTAPQDVVLKQVPIAFNAGMKPLQQLYYTLQALERPDLHPKVFTAIHTERKRLFDKKAMGEWAASQGVDRAKFDSVFDSFSVQTQVQRASQLAEAAHIDGTPAFAVGGRYMTSPVLAGNDYAGALKVVDQLIVQSREGHHHHHH | soluble
MSLTSDTKEKVEYSTDKYKVETNRFWDNWFISVGAGGQVYFGDHDKQIDFGDRIAPALDIAIGKWFTPGIGIRFMYSGLKSKGATRDDWECDITHGTGEHVPGWAGVPGDDLQYSKYKMSNLHADVLFNVLNLFGGYNENRKWDLSPYAGLGWARVYDSPSSKEVSANLGILTSWHFCDVLALNLDVRGMFVNDRFDGEGGGRFGEGNLSATIGLTYKFKQRSWDRSKTVYRYNYGDLESMRRKLNDMSAENDRLKKALADGDKQKAQTIVKKIASANLVTFKINRTKLSNEARANLGLLAEIIKSGDPETVYTITGYADAGTGSSKGNERLSKERAENVYDCLVKEFGVSEKQLRIDYKGGVDNMFYNDPRLSRAVITRGEEGHHHHHH | not soluble
MSLTSKMMAFLPYFLELKGKRVNIQALINDRVSQAIEAAGAPAGTPALVRQSAKAQFGDYQANGIMGAAKQLGTNPREFAQKVLDVLNLEGIASKTEIAGPGFINIFLSEEFLAAQAEAALADARLGVAQEAPKTIVADYSAPNVAKEMHVGHLRSTIIGDAVVRTLEFLGHKVIRANHIGDWGTQFGMLIANLERVQKASGEVSMELSDLEAFYRESKKLYDEDEQFAETARNYVVKLQGGDPFCLEMWKKLVDVTMIQNQRNYDRLNVSLTRENVMGESMYNDMLPQIVSDLKAKGLAVEDDGAQVVFLEEFKNKDGEPMGVIIQKRDGGFLYTTTDIACAKYRYETLGADRVLYFIDSRQHQHLMQAWTIVRKAGYIPENVSLEHHAFGMMLGKDGRPFKTRAGGTVRLADLLDEAQERAKALIESKNPELSAEEKANIANTVAMAAVKYADLSKHRTTDYVFDWDNMLAFEGNTAPYMQYAYTRVASVFAKAGVDMNELTGHIQITEEKEKALIAKLLQFEEAVQSVAREGQPHIMCSYLFELAGIFSSFYEACPILVAEQESIKQSRLKLAALTAKTIKQGLALLGIDTLERMEGHHHHHH | soluble
MSLTSKNQFYKPGMLVPVFSAAGLLKNGRYQFLLQQIETLSLLPTEQYAQLYEALVYRFVEFVQVLPIRLDEPLCSLMNEGLLRGVNSLNHYIQNHPEATPLERYALFSAGLLLEVAHAVVNQKIFITDEEGNFIKQWNPFSGPLIDDVETKHYKIMPLSSYYQRNIPSITPILVRQLLPDEGFLWLTSDMRVFSDWMQALRDDEGEGGGRFEHVLQLFKHKNIDGLFNTLPALPVNLQDSPATAHADAFLNWLKEALATNQIKVNTSDAGVHVIPEGVFLEKTGIFKQYIDLHVNVPVNLFTVYQQFGNLFGLTKLSGIDYRFEQLFSEYPDALKRKSKMGFAGLIGIRRASPTREGVLIADPNLIFTRGEIPSATSYLKLSSAQKSQNIPMTEGHHHHHH | soluble
MSLTSTIEELLTAARRRRVFSAAGWSVGTATTTLCRGLLGTTAWDPPATAVTEDSRWDLASMTKPIVAIAVMSLIEDGVLTLDDTIAEHLPDYADTDKARIRVANLLTHTSGIPGRQPLYQWNRARDELLTAIRRLPLLGPPGAQVSYSSPGFILLGLIAESAAGMPLDQLVAERVTRPAGMVDAGFASPPTELAVATEDDPWRGHLVRGEVHDENAVVLGAPAGHAGMFATLVDMEALGRTLCAQGWGAHGRVLTPAGYAAMITPRTDHLPLRRTLGWQGVDAVDATAGDLIGPDGYGHTGFTGTSLWIDPDRGSYVVLLTNRIHPNRENTAISRVRRAVNNIGFALASEGHHHHHH | soluble
MSLTTENQNPLVLDKNEEISQQKADDIRLQLRQEPEVKRLAQQIDVKNQMELLEYGKEPAVEISKFSDRILGMMKTTSVTDSGTMLTQLGKIMDRFDKNDFDEPKGLMAKIFKRGGSMIEKIFKKYQTLGGEIEKIHVEISKYKDEMTKTNYTLDEMYENNIKYYMELEKYVVAGQMKLEEMQSILPSYEEKAASGNQLAQMQLDTLRNGIQALEERVYDLDMARMVALQTAPQIRLLQRGNAKLIGKINSAFIITIPIFKNGIIQAVTVKRQKLVADSMSELDRRTNEMLKRNAENISSQSVEIARMAGRPSIDIETIESSWNTIVSGMQETKQIEEENKRLREDGARRIAQLQDNIKKAALQQEGHHHHHH | not soluble
